# Measurements as given in PMC2172855.
# Molecular target: microtubules of cultured mouse hippocampal neurons (mouse (endogenous in cultured hippocampal neurons)) (UniProt P68369)
# Test: immunostaining of cells or tissue
substance,measurement,value
tailless KIF5B G234A::YFP (from UniProt Q61768 1-761) (domain or fragment),"fluorescence ratio of rigor-KIF5::GFP to tubulin staining, in axons",1.2
same,"fluorescence ratio of rigor-KIF5::GFP to tubulin staining, in dendrites",0.5
